The target in one test is T1, recombinant human IFNω (Homo sapiens, UniProt P05000).
T1 construct: interferon omega-1, human; source: recombinant
Put plainly: SPR; antibodies 19D11 and 26B9 immobilized on Biacore chips; different concentrations of recombinant human IFNs passed over; Biacore T200. The note with it: both partners purified. For orientation: SPR reads the build-up and loss of mass on a sensor chip optically.

The target of another test is T2, recombinant human IFNα4 (Homo sapiens, UniProt P05014).
T2 construct: interferon alpha-4, human; source: recombinant
Described as above. Particulars: both partners purified.

The target in the next test is T3, recombinant human IFNα14 (Homo sapiens, UniProt P01570).
T3 construct: interferon alpha-14, human; source: recombinant
The test is described as above. The note with it: both partners purified.

Another test deals with T4, human IL22 (Homo sapiens, UniProt Q9GZX6).
T4 construct: interleukin-22, human; also called interleukin-22
Kind of test: SPR; Biacore T200; who was immobilised is not told for these mAbs (values of Table S3). The note with it: both partners purified.

Test [1] deals with T5, human IL17F (Homo sapiens, UniProt Q96PD4).
T5 construct: interleukin-17F, human
Described as above. Particulars: both partners purified.

Test [2] concerns the target T5, human IL17F. Put plainly: ELISA; IL17F immobilized; mAbs and germline counterparts added. A general note: An ELISA detects its analyte on a solid surface through an enzyme-linked reagent.

Some results are limits rather than exact numbers.

In paper PMC4967814 (Cell, 2016) one finds binding result and Kd data, which are given here for seven molecules.

T4 sequence (Q9GZX6 34-179): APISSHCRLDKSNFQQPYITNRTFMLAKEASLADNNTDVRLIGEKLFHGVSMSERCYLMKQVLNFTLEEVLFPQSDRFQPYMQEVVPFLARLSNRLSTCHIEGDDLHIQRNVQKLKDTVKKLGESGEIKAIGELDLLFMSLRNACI
T5 sequence (Q96PD4 31-163): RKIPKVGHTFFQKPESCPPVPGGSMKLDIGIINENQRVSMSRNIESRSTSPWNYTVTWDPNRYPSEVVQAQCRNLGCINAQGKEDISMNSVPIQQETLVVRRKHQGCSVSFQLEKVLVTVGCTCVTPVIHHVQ
T1 sequence (P05000 22-195): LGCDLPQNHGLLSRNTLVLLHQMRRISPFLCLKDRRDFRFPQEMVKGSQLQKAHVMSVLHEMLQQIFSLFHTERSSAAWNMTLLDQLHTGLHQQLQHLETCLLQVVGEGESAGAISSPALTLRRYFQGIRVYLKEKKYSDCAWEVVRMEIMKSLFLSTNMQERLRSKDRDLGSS
T2 sequence (P05014 24-189): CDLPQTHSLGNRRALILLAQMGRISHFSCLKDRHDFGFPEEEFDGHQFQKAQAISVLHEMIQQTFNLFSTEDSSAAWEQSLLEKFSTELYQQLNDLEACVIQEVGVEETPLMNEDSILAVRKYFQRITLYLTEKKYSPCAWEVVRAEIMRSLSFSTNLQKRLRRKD
T3 sequence (P01570 24-189): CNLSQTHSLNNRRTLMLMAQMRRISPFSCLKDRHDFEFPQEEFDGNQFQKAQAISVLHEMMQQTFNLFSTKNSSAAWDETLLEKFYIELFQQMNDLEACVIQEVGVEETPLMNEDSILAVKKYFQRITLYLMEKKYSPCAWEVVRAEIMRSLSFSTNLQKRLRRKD

B1: 19D11, APS1/APECED patient-derived anti-IFN monoclonal antibody (antibody, V domains shown)
VH: QVQLVQSGAEVKRPGSSVRVSCRASGDTFSSYPISWVRQAPGQGLEWMGRILPALGVTNYAQNFRGRITITADKSPLTAYLELSSLRFEDTAVYYCASPSADIIPSILGTTLFAFWGQGSLVTVSS
VL: EIVLTQSPGTLSLSPGEGATLSCRASQNVSRHYLTWYQQKPGQSPRLLIYGGSSRATGVPDRFSGGGSGTDFTLTISRLEPEDFAVFYCQSYHSPPPVYTFGQGTKVEIK
notes: V regions cloned into vectors providing IgG1 and Ig-kappa constant regions; source: recombinant, harvested from transfected CHO cells (SPR); recombinant antibodies were also produced in HEK293T cells
Consider B1, for which, in the test with recombinant human IFNω, the binding result is recorded as “no binding”.

B2: 26B9, APS1/APECED patient-derived anti-IFN monoclonal antibody (antibody, V domains shown)
VH: QILLQESGPGLVKPTETLSLTCSVSGDSISDSSHYWAWIRQPPGKGPEWIGSVYFSSMTHYNPSLKSRVSISVDKPKNQFSLKVTSVTVADTATYYCARQALARVGAMNWFDPWGQGSLVTVSS
VL: DIIMTQSPDSLPVSLGEGVTINCKSSQSVFFTSSNKSCLAWYQQKPGKSPKLLIYWASTRQSGVPDRFRGSGSGTDFSLTITSLQAEDVAVYFCQQCQTSPPTFGGGTRLEIK
notes: as for B1
Consider B2, for which the binding result in the test with recombinant human IFNα4 and with recombinant human IFNω was “binds” each time. In addition, the Kd (commonly a measure of binding affinity in units of concentration) with recombinant human IFNα14 was found to be 0.0328 pM.

B3: fezakinumab, CHO cell-expressed form (in-house-expressed anti-IL22 mAb) (antibody, V domains shown)
VH: QVQLVQSGAEVKKPGASVKVSCKASGYTFTNYYMHWVRQAPGQGLEWVGWINPYTGSAFYAQKFRGRVTMTRDTSISTAYMELSRLRSDDTAVYYCAREPEKFDSDDSDVWGRGTLVTVSS
VL: QAVLTQPPSVSGAPGQRVTISCTGSSSNIGAGYGVHWYQQLPGTAPKLLIYGDSNRPSGVPDRFSGSKSGTSASLAITGLQAEDEADYYCQSYDNSLSGYVFGGGTQLTVL
notes: expressed as the patient mAbs (vectors providing IgG1 and light-chain constant regions); source: CHO cell-expressed; V regions ordered as CHO-codon-optimized synthetic constructs (GenScript)
In turn, B3 gave a Kd in the test with human IL22 of 54 pM.

B4: 35G11, patient-derived IgGλ antibody specific for IL22 (antibody, V domains shown)
VH: QVQLVQSGSELRRPGASVNISCKASGYGFNTYAMNWVRQAPGQGPEWMGWINTDTGDPTYAQGFTGRFAFFLDTSASTAFLQITRLTGEDTAVYFCARTRNNWNGVYYHYSGLDVWGQGTTVTVSS
VL: QSVLTQPPSASGTPGQTVTISCSGSSPNLGDNYVYWYHQVPGTAPKLLIFRNTQRPSGVTDRFSGSKYGTSASLAISDLRSDDEGDFYCASWDDRLSRLVFGGGTKLTVL
notes: lambda light chain; IgG1 lambda by the cloning vectors; source: recombinant
With B4, in the test with human IL22, binding was put at a Kd of 39 pM.

B5: 17E3, patient-derived IgGκ mAb specific for IL17F (antibody, V domains shown)
VH: QVQLVQSGAEVAKPGASVRLSCKASGFSFIKYYMHWVRQAPGQGLEWMGVIEPTGGGTSSAQKFRDRVTLSRDTSTATVHLEVSRLTLEDTGIYFCVRDSIYCKHGTCHRTVIDAFDIWGQGTAVTVSS
VL: DIQMTQSPSSLSASVGDRVTITCRSSQDIKNDLAWYQQKPGKAPERLIYAASNLQSGVPSRFSGSGSGTEFSLTISGLQPEDFATYYCLQHNSYPLLTFGGGTKVEIK
notes: kappa light chain; IgG1 kappa by the cloning vectors; source: recombinant
On to B5, for which, in the test with human IL17F [1], the Kd is < 10 pM.

B6: 30G1, patient-derived IgGκ antibody specific for IL22 (antibody, V domains shown)
VH: EVQLLESGGGLVQPGGSLRLSCAASGFTFSTYAMSWVRQAPGKGLEWVSTITSSGGATYHADSVKGRLTISRDNSKNTLYLEMNSLRVEDTAVYYCAKDWGRTVYAVIKDLDIWGQGTLVTVSS
VL: EIVMTQSPAILSVSPGERATLSCRASQSVSNYLAWFQQKPGQAPRLLIYDTSKRATGTPARFSGSGSGTDFTLTISSLEPEDFAVYFCQQRSDWPQYTFGQGTKLEIK
notes: as for B5
In the case of B6, the Kd with human IL22 amounted to 37 pM.

B7: 9A2, patient-derived IL17F-reactive mAb (antibody, V domains shown)
VH: EVQLEESGGGLVQPGGSLRLSCAASGFPFSNYEMNWVRQAPGKGLEWISYISVSGGPAHYADSVKGRFTISRDDATKSLFLQMNRLRADDTAVYYCVRREYVTGRNYNYYPYMDVWGTGTTVTVSP
VL: DIQMTQSPSSLSASVGDRVTITCRASQTISDYLNWYQHKPGEAPKLLIYSASTLQRGVPSRFSGSGSGTDFVFTISSLQSDDFATYYCQQTSSTALTFGGGTKVEVK
notes: source: recombinant
Take B7: in the test with human IL17F [2], the binding result is recorded as “binds”.
